Key:
CtTrl1-LIG K148N = target: T1, CtTrl1-LIG K148N (Chaetomium thermophilum (syn. …, UniProt G0S6G2 1-414, K148N)); test: EMSA
T1 sequence: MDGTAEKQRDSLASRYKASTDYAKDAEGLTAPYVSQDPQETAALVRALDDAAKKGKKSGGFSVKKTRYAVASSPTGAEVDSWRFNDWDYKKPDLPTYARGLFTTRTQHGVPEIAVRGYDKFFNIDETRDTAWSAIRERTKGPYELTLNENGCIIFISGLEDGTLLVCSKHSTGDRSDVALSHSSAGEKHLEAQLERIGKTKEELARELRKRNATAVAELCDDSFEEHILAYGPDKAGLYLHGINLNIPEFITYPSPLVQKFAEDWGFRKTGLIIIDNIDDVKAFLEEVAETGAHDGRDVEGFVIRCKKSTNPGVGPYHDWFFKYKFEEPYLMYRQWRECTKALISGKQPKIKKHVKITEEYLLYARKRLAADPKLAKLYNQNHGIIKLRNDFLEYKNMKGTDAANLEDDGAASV

[1] = target: T2, CtTrl1-LIG WT (tRNA ligase LIG domain) (Chaetomium thermophilum (syn. …, UniProt G0S6G2 1-414)); test: EMSA
T2 sequence: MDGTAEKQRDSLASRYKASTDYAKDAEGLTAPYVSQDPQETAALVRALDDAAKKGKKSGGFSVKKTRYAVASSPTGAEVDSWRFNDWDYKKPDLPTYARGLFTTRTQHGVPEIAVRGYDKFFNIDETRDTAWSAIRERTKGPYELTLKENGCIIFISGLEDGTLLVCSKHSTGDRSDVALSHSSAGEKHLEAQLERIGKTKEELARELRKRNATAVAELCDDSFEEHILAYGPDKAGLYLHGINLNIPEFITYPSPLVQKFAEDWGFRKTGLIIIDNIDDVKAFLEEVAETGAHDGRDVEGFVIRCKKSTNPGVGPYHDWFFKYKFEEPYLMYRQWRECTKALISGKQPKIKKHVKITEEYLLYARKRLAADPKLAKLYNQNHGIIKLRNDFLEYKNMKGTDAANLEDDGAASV

[2] = target: T2, CtTrl1-LIG WT (tRNA ligase LIG domain); test: X-ray crystallography

B1: ASL-4U (structured_RNA)
RNA: AUCUGGAUUUUGCCAGACUGAAG
modifications: 5'-phosphate; terminal phosphate at 3' end (ordered as [Phos]; 2'-P form in the EMSA not stated)
Question: What does the source list for B1?
Answer: binding result (CtTrl1-LIG K148N): binds; binding result [1]: binds

B2: sctRNAPhe-3'exon-7nt (dsRNA)
RNA 1: AUCUGGA
RNA 2: AUCUGGA
modifications: 5'-phosphate; one strand 5'-adenylylated (AppRNA) in the crystal
Question: Does B2 bind [2]?
Answer: binds
